Assay results as given in publication doi:10.1101/2022.05.13.491857 (bioRxiv, 2022).
Read-outs that look alike come from different tables or passages of the source.

Experiments:
Experiment in all cases: pull-down
WRC230WCA [1] = target: T1, WRC230WCA (human, UniProt Q7L576 1-1253; Q9Y2A7 1-1128; Q92558 1-230; Q92558 485-559; Q9NYB9 1-158; …)
ΔWRC230 [2] = target: T2, ΔWRC230 (human, UniProt Q7L576 1-1253; Q9Y2A7 1-1128; Q92558 1-230; Q9NYB9 1-158; Q8WUW1 1-75)
WRC230WCA [3] = target: T1, WRC230WCA; remark: listed apart in the source
ΔWRC230 [4] = target: T2, ΔWRC230; remark: listed apart in the source

B1: GST-Arf1 (natural protein)
chain: not shown
Kd (WRC230WCA [1]): ~8.2 µM
Kd (ΔWRC230 [2]): ~0.66 µM
Kd (WRC230WCA [3]): ~107 µM
Kd (ΔWRC230 [4]): ~22.6 µM
